The results in this text go back to patent US20240294650A1 (Alector, published 2024).

One may read the Kd as the constant that tells how readily two partners part at equilibrium.

The labels stand for the following.
B1: MTK-213 (antibody, human IgG1, V domains shown)
VH: QVQLQQPGAELVKPGASVKMSCKASGYTFTSYWITWVKQRPGQGHEWIGEIYPGIGSTNYNEKFKSKATLTVDTSSRTAYMQLSSLTSEDSAVYFCARGAYTKYYFDYWGQGTTLTVSS
VL: DIVMTQSHKFMSTSVGDRVSITCKASQDVGDAVAWYQQKPGQTPKLLIYWASTRHTGVPDRFTGSGSGTDFTLTISNVQSEDLADYFCQQYSSYLMYTFGGGTKLEIK
B2: MTK-227 (antibody, human IgG1, V domains shown)
VH: EVKLVESGGGLVQPGGSLSLSCAASGFTFTDNYMTWVRQPPGKALEWLGFSRNKANGYTTEYSASVKGRFTISRDSSQSILYLQMNALRAEDSGTYYCARFPPHYYAGGYFDVWGTGTTVTVSS
VL: DIQMTQSPASLSASVGETVTITCRASENIYSYLAWYQQKQGKSPQLLVYNAKTLAEGVPSRFSGSGSGTQFSLKINSLQPADFGSYYCQHYYRTPPTFGGGTKLEIK
B3: MTK-228 (antibody, human IgG1, V domains shown)
VH: QDQLQQSGPELVKPGASVKISCKASGYSFTSYYIHWVKQRPGQGLEWVGWIFPGNGNTKYNERFKGKATLTADTSSSTAYMQLSSLTSEDSAVYYCARLGLIYALDYWGQGTSVTVSS
VL: DAVMTQTPLSLPVSLGDQASISCRSSQSLENSNGNTYLHWYLQKPGQSPQLLIYRVSNRFSGVLDRFSGSGSGTDFTLKISRVEAEDLGVYFCLQVTHVPFTFGSGTKLEIK
B4: MTK-226 (antibody, human IgG1, V domains shown)
VH: B3 VH with D2V, V48I, R63N, K65R
VL: B3 VL with N31S, K79Q
B5: MTK-218 (antibody, human IgG1, V domains shown)
VH: B3 VH with D2V, A16T, E46D, V48I, G56R, K59Q, R63K
VL: B3 VL with N35H, L64Q
B6: MTK-210 (antibody, human IgG1, V domains shown)
VH: QVQLQQSGPELVKPGASVKISCKASDYEFSRSWMNWVKQRPGKGLEWIGRIYPGDGDTNYNGKFKGKATLTADKSSNTAYMQLNSLTSEDSAVYFCARKGGYYYSISNYFDYWGQGTTLTVSS
VL: QIVLTQSPAIMSASPGVKVTMTCSASSSVSYMHWYQQKPGSSPRLLIYDTSNLASGVPVRFSGSGSGTSYSLTISRMEAEDAATYYCQQWSSYPPYTFGGGTKLEIK
B7: MTK-203 (antibody, human IgG1, V domains shown)
VH: QVQLQQPGAELVKPGASVKVSCKASGYTFTNYWMHWVKQRPGQGLEWIGRIHPFDTETNDNQKFKGKATLTVDKSSSTAYMQLSSLTSEDSAVYYCVIPANGGFAYWGQGTLVTVSA
VL: ETTVTQSPASLSVATGEKVTIRCITSTDIGDDMNWYQQKPGEPPKVLISEGNSLRPGVPSRFSSSGYGTDFVFTIENTLSEDVADYFCLQSDNLPLTFGSGTKLEIK
B8: MTK-214 (antibody, human IgG1, V domains shown)
VH: QVQLQQPGAELVKPGASVKVSCKASGYTFTNYWMHWMKQRPGQGLEWIGRIHPFDSDTNYNEKFTDKATLTVDKSSSTAYMQLSSLTSEDSAVYYCAIGTLIYWGQGTTLTASS
VL: DILLTQSPATLSVTPGETVSLSCRASQSIYKKLHWFQQRSHRSPRLLIKFASDSISGIPSRFTGSGSGTDYTLSINSVKPEDEAIYYCLQGYSTPLTFGAGTKLELK
B9: MTK-224 (antibody, human IgG1, V domains shown)
VH: QVQLQQPGAELVKPGASVKVSCKASGYTFTSYWMHWVKQRPGQGLEWIGRIHPFDSDTNYNQKFKGKATLTVDKSSSTAYMQLSSLTSEDSAVYYCSIAGFAYWGQGTLVTVSA
VL: DIVMTQSPATLSVTPGDRVSLSCRASQIISDYLNWYQQKSHESPRLLIKYASQSISGIPSRFSGSGSGSDFTLSINSVEPEDVGVYYCQNGHSFPLTFGAGTKLELK
B10: MTK-209 (antibody, human IgG1, V domains shown)
VH: B9 VH with S31N, M34I, D57E, T58P, Q82H, S84T, S97A, I98L, G100S
VL: ETTVTQSPASLSMAMGEKATIRCITSTDIDDKMNWYQQKPGKPPKLLISAGNTLRPGVPSRFSSSGYGTDFVLTVENMLSEDVADYYCLQGGALPLTFGSGTKLEIK
B11: MTK-230 (antibody, human IgG1, V domains shown)
VH: EVQLQQSGPELVKPGASVRIPCKASGYTFSDYNMDWVKQSHGKSLEWIGNINPNIGGTIYSQKFKGKATLTVDKSSSTAYMELRSLTSEDTAVYYCARGDYGFASWGQGTLVTVSA
VL: DIVLTQSPASLTVSLGQRATISCRASRSVSTSGYSYMHWYQQKPGQPPKLLIYLASNLESGVPARFSGSRSGTDFTLNIHPVEEEDAATYYCQHSREYPFTFGSGTKLEIK

Positions count from the first letter of the chain named.

One assay concerns the target T1, recombinant cynomolgus MerTK extracellular domain (cynomolgus, UniProt Q12866 21-505 (human entry)).
T1 construct: also called cyno MerTK ECD; not shown: polyHis or TEVS/Thrombin/murine IgG2a-Fc tag
T1 chain: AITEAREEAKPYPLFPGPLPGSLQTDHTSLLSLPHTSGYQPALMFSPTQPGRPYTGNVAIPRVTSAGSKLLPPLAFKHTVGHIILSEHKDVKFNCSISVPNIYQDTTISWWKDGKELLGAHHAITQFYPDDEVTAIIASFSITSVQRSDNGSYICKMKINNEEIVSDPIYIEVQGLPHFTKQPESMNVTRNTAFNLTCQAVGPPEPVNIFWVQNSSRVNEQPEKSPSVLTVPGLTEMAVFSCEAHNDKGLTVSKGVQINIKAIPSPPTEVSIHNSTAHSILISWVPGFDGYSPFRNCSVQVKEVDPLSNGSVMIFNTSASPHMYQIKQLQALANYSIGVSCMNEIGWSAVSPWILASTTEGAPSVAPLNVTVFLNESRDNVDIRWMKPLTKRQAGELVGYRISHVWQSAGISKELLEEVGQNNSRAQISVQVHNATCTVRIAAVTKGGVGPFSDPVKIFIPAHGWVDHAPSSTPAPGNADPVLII
Description: SPR Carterra LSA. The protocol:
Binding kinetics of anti-MerTK IgG1 antibodies of the present disclosure to human, cyno, and murine MerTK were evaluated using a Carterra LSA instrument (Carterra, Salt Lake City, UT). […] A HC200M sensor chip (Carterra) was activated using the single channel flow cell with a 7-minute injection of a 1:1:1 mixture of 100 mM MES pH 5.5, 100 mM sulfo-NHS, 400 mM EDC (all reconstituted in MES pH 5.5; 100 μl of each mixed in vial immediately before running assay). After switching to the multi-channel array flow cell, the antibodies were injected over the activated chip in three 96-spot arrays for 10 minutes each. The remaining unconjugated active groups on the chip were then blocked by injecting 1M Ethanolamine pH 8.5 (Carterra) for 7 minutes using the single channel flow cell. The resulting sensor chip contained three spots for each antibody, at three different densities. Two independent experiments were performed as follows, resulting in an N of between one and six determinations for each antibody. Spots that yielded less than 25 RU of analyte binding were excluded from further analysis.
After priming with running buffer (HBS-TE, Carterra) with 0.5 mg/ml BSA (Sigma), the immobilized anti-MerTK antibodies were tested for their ability to bind to several forms of recombinant MerTK extracellular domain, including human, cynomolgus, and mouse orthologs as described above. Estimates of affinity were generated by injecting each analyte over the entire antibody array using the single channel flow cell. MerTK analytes were diluted with running buffer, in a series of six, three-fold serial dilutions starting from 1 μM for human and cynomolgus MerTK, and 600 nM for mouse MerTK. Analytes were injected for 5 minutes, and dissociation was followed for 10 minutes. After each analyte injection, antibodies were regenerated with either Protein A/G Elution Buffer (Thermo) with 1M NaCl (Teknova), or with 10 mM Glycine pH 2.5. Three buffer blanks were run between each series (one species per series). Data were processed and analyzed using NextGenKIT high-throughput kinetics analysis software (Carterra).
For B1, the “Ratio of KD for Cynomolgus vs Human MerTK” value was found to be 0.9 ratio.
On the same count and under the same terms, as for B2, the figure is 0.8 ratio; as for B3, 1.1 ratio; as for B4, 1.2 ratio.
On the same count and under the same terms, as for B5, the figure is 1.3 ratio; as for B6, 1.2 ratio.

The target in another assay is T2, recombinant human MerTK extracellular domain (human, UniProt Q12866 21-505).
T2 construct: also called human MerTK ECD; not shown: polyHis or TEVS/Thrombin/murine IgG2a-Fc tag
T2 sequence: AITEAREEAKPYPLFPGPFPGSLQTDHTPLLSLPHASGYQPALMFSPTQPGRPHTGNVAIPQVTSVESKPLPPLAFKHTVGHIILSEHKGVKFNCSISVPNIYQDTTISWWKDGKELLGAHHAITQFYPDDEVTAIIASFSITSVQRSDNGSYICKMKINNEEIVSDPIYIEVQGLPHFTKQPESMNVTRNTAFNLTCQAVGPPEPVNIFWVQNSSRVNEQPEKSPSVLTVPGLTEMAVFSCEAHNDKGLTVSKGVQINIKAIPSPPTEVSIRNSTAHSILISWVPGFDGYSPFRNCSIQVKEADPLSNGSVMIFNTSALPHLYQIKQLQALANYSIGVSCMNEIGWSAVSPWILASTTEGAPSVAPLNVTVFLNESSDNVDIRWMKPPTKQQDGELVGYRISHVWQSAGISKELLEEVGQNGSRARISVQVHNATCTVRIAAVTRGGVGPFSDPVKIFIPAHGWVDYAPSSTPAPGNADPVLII
Description: SPR Carterra LSA, Ab immobilised. The essentials: (§1)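 Surface plasmon resonance on a Carterra LSA measured affinity of immobilized antibodies for human, cynomolgus or mouse MerTK ectodomain diluted in HBS-TE with 0.5 mg/ml BSA. Analytes flowed over the full array, surfaces were regenerated with Protein A/G Elution Buffer plus 1M NaCl or 10 mM Glycine pH 2.5, and spots binding under 25 RU were discarded before kinetic fitting.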
In the case of B1, the Kd was 64 nM.
With B2, the Kd was 99 nM.
The same measure, in the same setting: in the case of B3 it was 42 nM; in that of B4, 39 nM; in that of B5, 64 nM.
In the case of B6, the Kd is 31 nM.

A further assay deals with T1, recombinant cynomolgus MerTK …. Description: SPR Carterra LSA, Ab immobilised. The essentials:
as §1
Regarding B1, the Kd worked out at 60 nM.
Same read-out and setting: as for B2, the figure is 78 nM; as for B3, 46 nM; as for B4, 47 nM.
The same measure, in the same setting: in the case of B5 it was 85 nM; in that of B6, 37 nM.

The next assay concerns the target T3, recombinant murine MerTK extracellular domain (mouse, UniProt Q60805 19-497).
T3 construct: also called Mouse MerTK; murine MerTK ECD; not shown: polyHis or TEVS/Thrombin/murine IgG2a-Fc tag
T3 sequence: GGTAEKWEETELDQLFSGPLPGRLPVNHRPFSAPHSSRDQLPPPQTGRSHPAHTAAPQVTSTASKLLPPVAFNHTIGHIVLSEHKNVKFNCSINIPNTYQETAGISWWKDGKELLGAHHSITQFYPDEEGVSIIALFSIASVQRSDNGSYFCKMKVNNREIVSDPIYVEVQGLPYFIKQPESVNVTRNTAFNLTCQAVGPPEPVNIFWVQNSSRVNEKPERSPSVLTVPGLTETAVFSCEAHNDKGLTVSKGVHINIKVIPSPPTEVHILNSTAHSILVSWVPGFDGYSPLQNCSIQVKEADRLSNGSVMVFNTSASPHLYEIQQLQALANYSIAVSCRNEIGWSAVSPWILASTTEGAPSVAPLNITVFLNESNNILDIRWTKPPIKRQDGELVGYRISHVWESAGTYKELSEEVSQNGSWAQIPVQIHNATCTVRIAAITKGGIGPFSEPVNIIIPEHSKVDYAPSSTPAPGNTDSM
Description: SPR Carterra LSA, Ab immobilised. The essentials: as §1
In the case of B1, the Kd turned out to be 4.8 nM.
In the case of B2, the dissociation constant (Kd) is 8.3 nM.
For the molecule B7, the dissociation constant (Kd) amounted to 400 nM.
The same measure, in the same setting: in the case of B8 it was 320 nM; in that of B9, 430 nM.
Same read-out and setting: as for B10, the figure is 460 nM; as for B3, 1.7 nM; as for B4, 1.8 nM.
On to B5, for which the Kd amounted to 6.2 nM.
Consider B11, for which the dissociation constant Kd is 29 nM.
As for B6, the binding result is “no binding (tested: analyte up to 600 nM)”.
